This passage reports binding results from paper PMC9769551.

The target in this series is T1, AcrR (Escherichia coli BW25113) (UniProt P0ACS9).
T1 sequence: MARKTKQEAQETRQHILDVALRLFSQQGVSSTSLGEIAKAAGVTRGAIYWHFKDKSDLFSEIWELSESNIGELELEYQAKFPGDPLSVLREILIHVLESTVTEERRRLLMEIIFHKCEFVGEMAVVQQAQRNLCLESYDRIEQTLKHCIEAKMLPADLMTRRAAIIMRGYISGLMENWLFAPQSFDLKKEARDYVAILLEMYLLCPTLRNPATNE
Kind of series: EMSA. The settings on record: 10 mM Tris-HCl pH 7.5, 50 mM KCl, 1 mM DTT, 5 mM MgCl2, 1 ug poly(dI-dC), 0.05% NP-40, 5% glycerol, 20 uL with 25 fmol DNA (protein stock in 200 mM NaCl, 20 mM …). (A gel shift assay detects complexes by their altered migration in electrophoresis.)
As for “CAAAGTAAAGTGGTCAAGCCCCGCGCATAGCGCAAGCTTTGGCAGAAGAAAGGACTAAAGCGCGTTGCGCCAGTGCTGCTCACCTACGAGCAAGATAGTGGATGAGGTACGAAGATGGGTAAATGTAGAAAATAACGTCCTGAACAAATTGTCCATAATATTACAATTATCCGCAGTGTTGCTTCTCGTCATCGCGGATGATAATTGTCCTCGGTAGTTGAACACGCCTGATTTGTATCATAGCTTAAGAATTAACTCAAAATATTTTCACTTCTTTACCTGAGCG (double strand) [mdtUJIp 286 bp]”, the binding result is reported as “binds”. Under “CTTTGATAGTCATATATTCCACCAGCTATTTGTTAGTGAATAAAAGGTTGCCTGTAAAATTACAAAAACCTTACGCAGCGTCAAGCGGAATCGTGTCAATCATTGCGACAAATCAATCCTGTGCCTAAGCATTACGCGACTGACTCGCCTCACTCTTCCTTTGGGCTTGAGACCACATGGGGTCGGCGCCCCGAATTTTAAAGGGCAATTACGATAAAAATGTGATTTTCATCACGATTTAGGTGCAGC (double strand) [gapAp 249 bp]” stands “no binding”; under “GTGGACTAAATTATCGCCATTACTGCGCTTTAAATGACCTTTATGTTCAATATTTTTTCAATCTAGCAGTGGGTTTTCATTTTTGCAAACTCAATTTAACATTTGACAAACATTTAGTTTGCATACAGATTCGAATGGTGGTCATTATATTTTACGCTTTGATAACGAGCGGAAAACAAACCAAAGGCGAAGAATCATGGAAACCAATATCGTTGAAGTAGAGAAC (double strand) [puuAp 226 bp]”, “binds”. As to “TGTTCATATGTAAACCTCGAGTGTCCGATTTCAAATTGGTCAATGGTCAAAAGTTAATAAACCCATTGCTGCGTTTATATTATCGTCGTGCTATGGTACATACATTCACAAATGTATGTAAATCTAACGCCTGTAAATTCACGAACATATGGCACGAAAAACCAAACAAGAAGCGCAAG (double strand) [acrABp 179 bp]”, the binding entry was “binds”.
